Source: ChEMBL document CHEMBL1140019, “Primary amides as selective inhibitors of cathepsin K” (Bioorg Med Chem Lett, 2007)

Key:
Details in all cases: Homo sapiens
[1] = substrate: CC(C)C[C@H](N[C@@H](c1ccc(-c2ccc(S(C)(=O)=O)cc2)cc1)C(F)(F)F)C(=O)NCC(N)=O; test: (§1) Activity of humanized rabbit cathepsin K at 25 uM
[2] = substrate: CC(C)C[C@H](N[C@@H](c1ccc(-c2ccc(S(C)(=O)=O)cc2)cc1)C(F)(F)F)C(=O)N[C@@H](C)C(N)=O; test: as §1
[3] = substrate: CSCC[C@H](NC(=O)[C@H](CC(C)C)N[C@@H](c1ccc(-c2ccc(S(C)(=O)=O)cc2)cc1)C(F)(F)F)C(N)=O; test: as §1
[4] = substrate: Cc1cc(=O)oc2cc(NC(=O)[C@H](CCCN=C(N)N)NC(=O)[C@H](CC(C)C)NC(=O)OCc3ccccc3)ccc12; test: as §1
[5] = substrate: CC(C)C[C@H](N[C@@H](c1ccc(-c2ccc(S(C)(=O)=O)cc2)cc1)C(F)(F)F)C(=O)NCC(N)=O; test: (§2) Ratio of Kcat to Km for humanized rabbit cathepsin K; parameters: unit not given here
[6] = substrate: CC(C)C[C@H](N[C@@H](c1ccc(-c2ccc(S(C)(=O)=O)cc2)cc1)C(F)(F)F)C(=O)N[C@@H](C)C(N)=O; test: as §2; parameters: unit not given here
[7] = substrate: CSCC[C@H](NC(=O)[C@H](CC(C)C)N[C@@H](c1ccc(-c2ccc(S(C)(=O)=O)cc2)cc1)C(F)(F)F)C(N)=O; test: as §2; parameters: unit not given here
[8] = substrate: Cc1cc(=O)oc2cc(NC(=O)[C@H](CCCN=C(N)N)NC(=O)[C@H](CC(C)C)NC(=O)OCc3ccccc3)ccc12; test: as §2; parameters: unit not given here

B1: Cathepsin K (Homo sapiens), P43235 (protein)
chain: MWGLKVLLLPVVSFALYPEEILDTHWELWKKTHRKQYNNKVDEISRRLIWEKNLKYISIHNLEASLGVHTYELAMNHLGDMTSEEVVQKMTGLKVPLSHSRSNDTLYIPEWEGRAPDSVDYRKKGYVTPVKNQGQCGSCWAFSSVGALEGQLKKKTGKLLNLSPQNLVDCVSENDGCGGGYMTNAFQYVQKNRGIDSEDAYPYVGQEESCMYNPTGKAAKCRGYREIPEGNEKALKRAVARVGPVSVAIDASLTSFQFYSKGVYYDESCNSDNLNHAVLAVGYGIQKGNKHWIIKNSWGENWGNKGYILMARNKNNACGIANLASFPKM
Km [1]: 0.119 µM | kcat [1]: 23.2 s⁻¹ | Km [2]: 0.087 µM | kcat [2]: 23.2 s⁻¹ | kcat [3]: 3.25 s⁻¹ | Km [4]: 2 µM | kcat [4]: 79 s⁻¹ | kcat/Km [5]: 0.19 | kcat/Km [6]: 0.26 | kcat/Km [7]: 0.54 | kcat/Km [8]: 0.04
